Literature values as cited in PMC5148012.

Target: GP1bα (glycocalicin) glycocalicin (extracellular part) (Homo sapiens) (UniProt P07359)
Chain of UniProt P07359 (P07359 17-506): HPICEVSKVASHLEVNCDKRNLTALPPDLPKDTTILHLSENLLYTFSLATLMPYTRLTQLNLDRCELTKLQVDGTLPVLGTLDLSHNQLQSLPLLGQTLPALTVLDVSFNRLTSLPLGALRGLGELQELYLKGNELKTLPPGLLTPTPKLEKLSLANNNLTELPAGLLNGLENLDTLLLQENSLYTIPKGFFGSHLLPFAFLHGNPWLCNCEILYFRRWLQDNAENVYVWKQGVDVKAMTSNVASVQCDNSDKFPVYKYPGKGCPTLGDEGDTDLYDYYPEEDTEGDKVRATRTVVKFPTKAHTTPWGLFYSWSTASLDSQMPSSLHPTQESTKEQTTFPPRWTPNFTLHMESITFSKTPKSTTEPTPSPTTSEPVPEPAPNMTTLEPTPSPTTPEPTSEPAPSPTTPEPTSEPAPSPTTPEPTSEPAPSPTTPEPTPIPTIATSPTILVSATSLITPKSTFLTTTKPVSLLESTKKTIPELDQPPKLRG

HbA (from UniProt P69905)
Kd: 44.2 µM
